Results taken from article PMC12316515, “PIF4‐dependent 2‐hydroxymelatonin and 3‐hydroxymelatonin biosynthesis is involved in skotomorphogenic seedling growth in Arabidopsis thaliana”.

B1: M3H E3 (dsDNA)
DNA 1: CAATGTTAAAGACACATGAACGTTGGGATA
DNA 2: TATCCCAACGTTCATGTGTCTTTAACATTG
B2: M3H E1/E2 (dsDNA)
DNA 1: CATACCATATGTCTTTTATCATCTGTCCTT
DNA 2: AAGGACAGATGATAAAAGACATATGGTATG
B3: M2H E2 (dsDNA)
DNA 1: GATGACTATTTTCATTTGATAATATATCCA
DNA 2: TGGATATATTATCAAATGAAAATAGTCATC
B4: AtM2H (Arabidopsis melatonin 2-hydroxylase) (Arabidopsis thaliana) (protein)
chain: MEETNKSVVNDYFTSAMELTESGDPHVPTRYILPPSQRPMLGPSIGTSTINLPVIDLSFLHDPLLRLCVIHEIELACKGFGFFQVINHGISSAVVKDAQDSATRFFDLPADEKMHLVSDNFQEPVRYGTSINHSTDRVHYWRDFIKHYSHPLSNWINLWPSNPPCYKEKVGKYAEATHVLHKQLIEAISESLGLEKNYLQEEIEEGSQVMAVNCYPACPEPEIALGMPPHSDYGSLTILLQSSEGLQIKDCNNNWVCVPYIEGALIVQLGDQVEVMSNGIYKSVVHRVTVNKDYKRLSFASLHSLPMHKKISPATQLVNENKPAAYGEFSFNDFLDYISRNDITQKRFIDTLRKKNL

Experiments:
Trx-PIF4 [1] = target: T1, Trx-PIF4 (Arabidopsis thaliana, UniProt Q8W2F3 1-430); test: EMSA; greatest binding of the probes; LightShift Chemiluminescent EMSA Kit, 100 fmol biotin-labeled DNA, 20 min at room temperature, native 6% PAGE in 0.5x TBE; binding buffer, salt and pH not stated; details: protein: recombinant; tags: N-terminal Trx (pET32b); label: 3' biotin
T1 sequence: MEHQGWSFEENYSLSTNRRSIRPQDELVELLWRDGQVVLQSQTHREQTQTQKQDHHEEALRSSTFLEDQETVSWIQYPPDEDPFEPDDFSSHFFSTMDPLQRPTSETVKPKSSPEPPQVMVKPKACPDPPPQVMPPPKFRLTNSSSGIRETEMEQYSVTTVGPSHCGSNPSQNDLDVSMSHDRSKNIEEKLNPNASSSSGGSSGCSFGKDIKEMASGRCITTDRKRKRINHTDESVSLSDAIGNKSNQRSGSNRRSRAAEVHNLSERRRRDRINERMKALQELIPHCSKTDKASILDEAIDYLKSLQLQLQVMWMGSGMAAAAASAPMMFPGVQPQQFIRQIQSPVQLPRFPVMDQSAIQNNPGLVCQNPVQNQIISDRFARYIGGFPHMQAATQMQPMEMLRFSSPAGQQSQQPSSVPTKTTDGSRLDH

Trx-PIF4 [2] = target: T1, Trx-PIF4; test: EMSA; LightShift Chemiluminescent EMSA Kit, 100 fmol biotin-labeled DNA, 20 min at room temperature, native 6% PAGE in 0.5x TBE; binding buffer, salt and pH not stated; details: protein: recombinant; tags: N-terminal Trx (pET32b); label: 3' biotin
purified protein = substrate: COc1ccc2[nH]cc(CCNC(C)=O)c2c1; test: purified protein; details: pH 8.0, GST fusion protein, substrate not named beside the value, implied by M2H activity

Binder	binding result (Trx-PIF4 [2])	other results
B1		binding result (Trx-PIF4 [1]): binds
B2	binds	
B3	binds	
B4		Km (purified protein): 355 µM
